Laboratory results: the supplement of paper PMC10065799, “High-throughput profiling of sequence recognition by tyrosine kinases and SH2 domains using bacterial peptide display” (eLife, 2023)

What follows are sequences tested on c-Abl (mouse) (assay: phosphorylation enrichment, bacterial display (enrichment ratio); higher = better substrate or ligand; peptides without Tyr show the background).
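Note: 11-residue human phosphosite peptides and single-mutation variants displayed on the E. coli surface, counted by deep sequencing, each peptide's frequency after selection divided by its frequency in the unselected input library; frequency after pTyr selection over input frequency; kinase dosed for 20-30% of maximal phosphorylation in three min.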

LSDGPYSNSYE [EPOR_Y485_P488S] was tested. Which phosphorylation enrichment did it give?
Its phosphorylation enrichment is 0.762.

For MDQAEYQAKIR [DHX58_Y518], which phosphorylation enrichment is on record?
The phosphorylation enrichment was 0.729.

Which phosphorylation enrichment does the source give for SADIAYNFRHG [PAH_Y166_F161S_YF] here?
Its phosphorylation enrichment is 0.789.

EKQVAYCPSGK [ROS1_Y2323] was tested. Which phosphorylation enrichment did it give?
The phosphorylation enrichment was 0.567.

For EVGRVYLFLQP [ITGA2B_Y360], which phosphorylation enrichment is on record?
The phosphorylation enrichment was 0.884.

How did the phosphorylation enrichment turn out when DGTGHYLCNAC [GATA5_Y208] was run?
The phosphorylation enrichment was 0.595.

With IGKAGYTDKMV [ENO1_Y236_V240M] as the sequence, how does the phosphorylation enrichment read?
The phosphorylation enrichment was 0.407.

Which phosphorylation enrichment does the source give for EFDRLYEEFTR [PIK3R1_Y467_YF] here?
The phosphorylation enrichment was 0.841.

Which phosphorylation enrichment does the source give for EEKKKYYDTKI [CASP5_Y103] here?
The phosphorylation enrichment was 0.618.

How did the phosphorylation enrichment turn out when DLSEVYKPCRK [CCDC93_Y176_R179C] was run?
The phosphorylation enrichment was 0.729.

With LCRYGYANTSE [SI_Y1233] as the sequence, how does the phosphorylation enrichment read?
The phosphorylation enrichment was 0.932.

Which phosphorylation enrichment does the source give for LHSEAYLKYNE [PBRM1_Y1610_I1614N] here?
The phosphorylation enrichment was 1.25.

For IPVNGYQPVPA [ROR2_Y824_V819I], which phosphorylation enrichment is on record?
Its phosphorylation enrichment is 0.592.

Which phosphorylation enrichment does the source give for KLPYPYDDPFS [GPX2_Y127] here?
Its phosphorylation enrichment is 0.705.

With AALRLYHVSDS [VIL1_Y256_K254R] as the sequence, how does the phosphorylation enrichment read?
Its phosphorylation enrichment is 0.798.

For RFVTRYIFNRE [HLA-DQB1_Y62_YF], which phosphorylation enrichment is on record?
The phosphorylation enrichment was 0.528.

LARDMDDKEFF [MET_Y1230_Y1230D_YF] was tested. Which phosphorylation enrichment did it give?
The phosphorylation enrichment was 0.464.

How did the phosphorylation enrichment turn out when RIDPDYVGRVR [IGSF9_Y81] was run?
Its phosphorylation enrichment is 0.65.

With KQLYAYKMLMA [TMC2_Y209] as the sequence, how does the phosphorylation enrichment read?
The phosphorylation enrichment was 0.57.

MEYLPYGSLRD [JAK2_Y934] was tested. Which phosphorylation enrichment did it give?
Its phosphorylation enrichment is 1.02.

For GKTQQYECKWY [BCR_Y751_D752E], which phosphorylation enrichment is on record?
Its phosphorylation enrichment is 0.681.

With PIFEGYALPHA [ACTA1_Y171_YF] as the sequence, how does the phosphorylation enrichment read?
Its phosphorylation enrichment is 2.44.

How did the phosphorylation enrichment turn out when SLIDGYFRLTE [JAK2_Y372_A377E_YF] was run?
The phosphorylation enrichment was 0.867.

How did the phosphorylation enrichment turn out when WVFNHYRCIIW [BRCA2_Y2624_W2626C_YF] was run?
Its phosphorylation enrichment is 1.04.

For KVITDYYVDMK [MPP4_Y566], which phosphorylation enrichment is on record?
Its phosphorylation enrichment is 0.758.

Which phosphorylation enrichment does the source give for KWKQKYEESQS [MYH6_Y1462_E1457K] here?
Its phosphorylation enrichment is 0.73.

With QEMMEYRHQIQ [DES_Y324] as the sequence, how does the phosphorylation enrichment read?
Its phosphorylation enrichment is 1.86.

Which phosphorylation enrichment does the source give for QEGPEYWDRET [HLA-A_Y83_Q86R] here?
The phosphorylation enrichment was 1.44.

SHSMRYFYTAV [HLA-C_Y31_D33Y] was tested. Which phosphorylation enrichment did it give?
The phosphorylation enrichment was 0.691.

Which phosphorylation enrichment does the source give for EPYELYCEMGS [CBL_Y371_Q367P] here?
The phosphorylation enrichment was 2.36.

With CTLLPYFSAPV [DGKE_Y269_R273P_YF] as the sequence, how does the phosphorylation enrichment read?
The phosphorylation enrichment was 0.896.

For SQSKGYRPKLF [SIPA1L3_Y1376_G1371S_YF], which phosphorylation enrichment is on record?
The phosphorylation enrichment was 0.478.

IGGHAYGDQFR [IDH1_Y135_R132G_YF] was tested. Which phosphorylation enrichment did it give?
The phosphorylation enrichment was 0.418.

Each sequence was assayed against Fes (UniProt P07332) in the same assay as above.
Fes, sequence (P07332 whole entry, looked up): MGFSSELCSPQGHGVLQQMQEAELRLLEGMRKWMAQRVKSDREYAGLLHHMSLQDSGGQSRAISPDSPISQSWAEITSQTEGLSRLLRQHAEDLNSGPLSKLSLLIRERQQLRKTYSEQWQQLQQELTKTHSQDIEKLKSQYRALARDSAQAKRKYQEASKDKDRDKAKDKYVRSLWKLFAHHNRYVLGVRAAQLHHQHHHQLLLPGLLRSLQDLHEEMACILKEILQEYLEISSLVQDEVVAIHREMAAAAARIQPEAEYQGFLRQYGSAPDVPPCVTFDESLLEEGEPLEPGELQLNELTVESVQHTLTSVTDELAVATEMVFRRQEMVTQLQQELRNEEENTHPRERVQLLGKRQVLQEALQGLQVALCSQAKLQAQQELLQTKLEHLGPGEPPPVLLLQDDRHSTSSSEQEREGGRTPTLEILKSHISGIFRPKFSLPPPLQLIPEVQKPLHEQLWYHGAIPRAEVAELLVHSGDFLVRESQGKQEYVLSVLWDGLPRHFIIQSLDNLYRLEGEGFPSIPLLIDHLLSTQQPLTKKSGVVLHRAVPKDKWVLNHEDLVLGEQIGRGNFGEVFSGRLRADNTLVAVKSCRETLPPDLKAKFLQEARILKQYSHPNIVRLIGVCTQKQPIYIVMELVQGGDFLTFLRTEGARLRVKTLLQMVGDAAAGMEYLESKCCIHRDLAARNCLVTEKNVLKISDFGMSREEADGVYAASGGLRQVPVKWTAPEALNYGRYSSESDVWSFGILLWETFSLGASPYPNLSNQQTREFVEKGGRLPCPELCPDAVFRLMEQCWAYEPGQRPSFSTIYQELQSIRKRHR

With LSDGPYSNSYE [EPOR_Y485_P488S] as the sequence, how does the phosphorylation enrichment read?
Its phosphorylation enrichment is 1.2.

MDQAEYQAKIR [DHX58_Y518] was tested. Which phosphorylation enrichment did it give?
The phosphorylation enrichment was 0.708.

How did the phosphorylation enrichment turn out when SADIAYNFRHG [PAH_Y166_F161S_YF] was run?
Its phosphorylation enrichment is 0.673.

Which phosphorylation enrichment does the source give for EKQVAYCPSGK [ROS1_Y2323] here?
The phosphorylation enrichment was 0.795.

EVGRVYLFLQP [ITGA2B_Y360] was tested. Which phosphorylation enrichment did it give?
The phosphorylation enrichment was 1.51.

Which phosphorylation enrichment does the source give for DGTGHYLCNAC [GATA5_Y208] here?
Its phosphorylation enrichment is 0.763.

Which phosphorylation enrichment does the source give for IGKAGYTDKMV [ENO1_Y236_V240M] here?
Its phosphorylation enrichment is 0.545.

Which phosphorylation enrichment does the source give for EFDRLYEEFTR [PIK3R1_Y467_YF] here?
The phosphorylation enrichment was 1.15.

How did the phosphorylation enrichment turn out when EEKKKYYDTKI [CASP5_Y103] was run?
The phosphorylation enrichment was 0.853.

Which phosphorylation enrichment does the source give for DLSEVYKPCRK [CCDC93_Y176_R179C] here?
Its phosphorylation enrichment is 0.935.

How did the phosphorylation enrichment turn out when LCRYGYANTSE [SI_Y1233] was run?
The phosphorylation enrichment was 1.41.

LHSEAYLKYNE [PBRM1_Y1610_I1614N] was tested. Which phosphorylation enrichment did it give?
The phosphorylation enrichment was 0.757.

How did the phosphorylation enrichment turn out when IPVNGYQPVPA [ROR2_Y824_V819I] was run?
The phosphorylation enrichment was 0.633.

Which phosphorylation enrichment does the source give for KLPYPYDDPFS [GPX2_Y127] here?
The phosphorylation enrichment was 1.06.

How did the phosphorylation enrichment turn out when AALRLYHVSDS [VIL1_Y256_K254R] was run?
The phosphorylation enrichment was 0.959.

How did the phosphorylation enrichment turn out when RFVTRYIFNRE [HLA-DQB1_Y62_YF] was run?
The phosphorylation enrichment was 1.68.

Which phosphorylation enrichment does the source give for LARDMDDKEFF [MET_Y1230_Y1230D_YF] here?
Its phosphorylation enrichment is 0.997.

Which phosphorylation enrichment does the source give for RIDPDYVGRVR [IGSF9_Y81] here?
Its phosphorylation enrichment is 0.702.

With KQLYAYKMLMA [TMC2_Y209] as the sequence, how does the phosphorylation enrichment read?
Its phosphorylation enrichment is 0.72.

With MEYLPYGSLRD [JAK2_Y934] as the sequence, how does the phosphorylation enrichment read?
The phosphorylation enrichment was 1.26.

With GKTQQYECKWY [BCR_Y751_D752E] as the sequence, how does the phosphorylation enrichment read?
The phosphorylation enrichment was 1.05.

PIFEGYALPHA [ACTA1_Y171_YF] was tested. Which phosphorylation enrichment did it give?
Its phosphorylation enrichment is 0.778.

How did the phosphorylation enrichment turn out when SLIDGYFRLTE [JAK2_Y372_A377E_YF] was run?
The phosphorylation enrichment was 1.08.

How did the phosphorylation enrichment turn out when WVFNHYRCIIW [BRCA2_Y2624_W2626C_YF] was run?
Its phosphorylation enrichment is 1.67.

For KVITDYYVDMK [MPP4_Y566], which phosphorylation enrichment is on record?
Its phosphorylation enrichment is 1.07.

With KWKQKYEESQS [MYH6_Y1462_E1457K] as the sequence, how does the phosphorylation enrichment read?
Its phosphorylation enrichment is 0.887.

For QEMMEYRHQIQ [DES_Y324], which phosphorylation enrichment is on record?
The phosphorylation enrichment was 2.13.

QEGPEYWDRET [HLA-A_Y83_Q86R] was tested. Which phosphorylation enrichment did it give?
Its phosphorylation enrichment is 2.45.

How did the phosphorylation enrichment turn out when SHSMRYFYTAV [HLA-C_Y31_D33Y] was run?
Its phosphorylation enrichment is 1.26.

Which phosphorylation enrichment does the source give for EPYELYCEMGS [CBL_Y371_Q367P] here?
The phosphorylation enrichment was 1.74.

How did the phosphorylation enrichment turn out when CTLLPYFSAPV [DGKE_Y269_R273P_YF] was run?
The phosphorylation enrichment was 1.34.

For SQSKGYRPKLF [SIPA1L3_Y1376_G1371S_YF], which phosphorylation enrichment is on record?
Its phosphorylation enrichment is 0.549.

With IGGHAYGDQFR [IDH1_Y135_R132G_YF] as the sequence, how does the phosphorylation enrichment read?
The phosphorylation enrichment was 0.567.
